{"source": "paper PMC9482650", "about": "“Quantitative fragmentomics allow affinity mapping of interactomes” (Nature Communications, 2022)", "binders": {"B1": {"name": "NLGN4X, Q8N0W4 (peptide)", "chain": "LPHGHSTTRV"}, "B2": {"name": "MMP24, Q9Y5R2 (peptide)", "chain": "YYKRPVQEWV"}}, "data": [{"biological_target": "T1, DFNB31_1, Q9P202", "T1 sequence (Q9P202 135-233, limits assumed, looked up)": "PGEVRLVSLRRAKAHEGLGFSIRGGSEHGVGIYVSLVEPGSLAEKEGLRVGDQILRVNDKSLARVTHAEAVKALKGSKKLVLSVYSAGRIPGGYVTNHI", "experiment": "holdup assay", "design": "key: below the threshold = too weak to quantify, mostly under pKd 3.1 to 4", "details": "plain residues with an end cap or a label only (N-terminal biotin on a linker: ado-ado)", "values": [{"binder": "B1", "pKd": 4.06}, {"binder": "B2", "pKd": "below the threshold"}]}, {"biological_target": "T2, LRRC7, Q96NW7", "T2 sequence (Q96NW7 1440-1537, limits assumed, looked up)": "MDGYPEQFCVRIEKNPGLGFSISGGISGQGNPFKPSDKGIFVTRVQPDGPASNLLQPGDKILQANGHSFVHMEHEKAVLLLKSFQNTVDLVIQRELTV", "experiment": "holdup assay", "design": "key: below the threshold = too weak to quantify, mostly under pKd 3.1 to 4", "details": "plain residues with an end cap or a label only (N-terminal biotin on a linker: ado-ado)", "values": [{"binder": "B1", "pKd": "below the threshold"}, {"binder": "B2", "pKd": 4.03}]}, {"biological_target": "T3, MPDZ_10, O75970", "T3 sequence (O75970 1624-1722, limits assumed, looked up)": "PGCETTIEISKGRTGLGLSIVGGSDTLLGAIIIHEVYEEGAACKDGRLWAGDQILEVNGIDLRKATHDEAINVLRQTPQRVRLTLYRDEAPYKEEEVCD", "experiment": "holdup assay", "design": "key: below the threshold = too weak to quantify, mostly under pKd 3.1 to 4", "details": "plain residues with an end cap or a label only (N-terminal biotin on a linker: ado-ado)", "values": [{"binder": "B1", "pKd": 3.83}, {"binder": "B2", "pKd": "below the threshold"}]}, {"biological_target": "FRMPD3, Q5JV73", "sequence (Q5JV73 12-100)": "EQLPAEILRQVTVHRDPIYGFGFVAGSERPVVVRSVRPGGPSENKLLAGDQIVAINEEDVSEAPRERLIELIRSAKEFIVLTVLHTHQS", "experiment": "holdup assay", "design": "key: below the threshold = too weak to quantify, mostly under pKd 3.1 to 4", "details": "plain residues with an end cap or a label only (N-terminal biotin on a linker: ado-ado)", "values": [{"binder": "B1", "pKd": "below the threshold"}, {"binder": "B2", "pKd": 3.55}]}, {"biological_target": "T4, CARD11, Q9BXL7", "T4 sequence (Q9BXL7 662-765, limits assumed, looked up)": "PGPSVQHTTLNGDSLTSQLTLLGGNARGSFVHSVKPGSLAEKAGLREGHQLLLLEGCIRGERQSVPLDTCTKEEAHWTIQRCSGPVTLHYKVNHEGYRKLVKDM", "experiment": "holdup assay", "design": "key: below the threshold = too weak to quantify, mostly under pKd 3.1 to 4", "details": "plain residues with an end cap or a label only (N-terminal biotin on a linker: ado-ado)", "values": [{"binder": "B1", "pKd": "below the threshold"}, {"binder": "B2", "pKd": "below the threshold"}]}, {"biological_target": "T5, GRIP1_7, Q9Y3R0", "T5 sequence (Q9Y3R0 999-1096, limits assumed, looked up)": "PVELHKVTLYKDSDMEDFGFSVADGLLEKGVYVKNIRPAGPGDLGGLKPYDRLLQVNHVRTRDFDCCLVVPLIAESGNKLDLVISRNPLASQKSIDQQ", "experiment": "holdup assay", "design": "key: below the threshold = too weak to quantify, mostly under pKd 3.1 to 4", "details": "plain residues with an end cap or a label only (N-terminal biotin on a linker: ado-ado)", "values": [{"binder": "B1", "pKd": "below the threshold"}, {"binder": "B2", "pKd": 3.71}]}, {"biological_target": "GOPC, Q9HD26", "experiment": "holdup assay", "design": "key: below the threshold = too weak to quantify, mostly under pKd 3.1 to 4", "details": "plain residues with an end cap or a label only (N-terminal biotin on a linker: ado-ado)", "values": [{"binder": "B1", "pKd": 4.37}, {"binder": "B2", "pKd": "below the threshold"}]}, {"biological_target": "Inadl_4, Q8NI35", "sequence (Q8NI35 547-651)": "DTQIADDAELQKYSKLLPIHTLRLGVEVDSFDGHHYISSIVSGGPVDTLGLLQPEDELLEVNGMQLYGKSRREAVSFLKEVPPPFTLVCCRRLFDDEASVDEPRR", "experiment": "holdup assay", "design": "key: below the threshold = too weak to quantify, mostly under pKd 3.1 to 4", "details": "plain residues with an end cap or a label only (N-terminal biotin on a linker: ado-ado)", "values": [{"binder": "B1", "pKd": "below the threshold"}, {"binder": "B2", "pKd": "below the threshold"}]}, {"biological_target": "IL16_1, Q14005", "sequence (Q14005 210-306)": "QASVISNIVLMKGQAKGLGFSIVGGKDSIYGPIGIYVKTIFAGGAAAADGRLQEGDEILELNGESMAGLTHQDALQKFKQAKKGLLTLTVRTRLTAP", "experiment": "holdup assay", "design": "key: below the threshold = too weak to quantify, mostly under pKd 3.1 to 4", "details": "plain residues with an end cap or a label only (N-terminal biotin on a linker: ado-ado)", "values": [{"binder": "B1", "pKd": "below the threshold"}, {"binder": "B2", "pKd": 3.48}]}, {"biological_target": "NHERF4_1, Q86UT5-2", "sequence (Q86UT5 other isoform, or with tags, fused parts or gaps)": "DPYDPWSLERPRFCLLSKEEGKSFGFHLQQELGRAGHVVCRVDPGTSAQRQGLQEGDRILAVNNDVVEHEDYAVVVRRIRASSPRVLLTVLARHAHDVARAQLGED", "experiment": "holdup assay", "design": "key: below the threshold = too weak to quantify, mostly under pKd 3.1 to 4", "details": "plain residues with an end cap or a label only (N-terminal biotin on a linker: ado-ado)", "values": [{"binder": "B1", "pKd": 3.76}, {"binder": "B2", "pKd": 3.47}]}, {"biological_target": "HTRA2, O43464", "sequence (O43464 355-458)": "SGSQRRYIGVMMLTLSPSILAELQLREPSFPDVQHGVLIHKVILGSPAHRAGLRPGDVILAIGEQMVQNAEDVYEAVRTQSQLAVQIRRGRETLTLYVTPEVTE", "experiment": "holdup assay", "design": "key: below the threshold = too weak to quantify, mostly under pKd 3.1 to 4", "details": "plain residues with an end cap or a label only (N-terminal biotin on a linker: ado-ado)", "values": [{"binder": "B1", "pKd": "below the threshold"}, {"binder": "B2", "pKd": 4.4}]}, {"biological_target": "T6, GRIP1_2, Q9Y3R0", "T6 sequence (Q9Y3R0 145-248, limits assumed, looked up)": "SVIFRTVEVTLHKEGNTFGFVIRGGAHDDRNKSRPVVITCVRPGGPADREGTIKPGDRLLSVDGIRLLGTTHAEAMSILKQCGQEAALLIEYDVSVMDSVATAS", "experiment": "holdup assay", "design": "key: below the threshold = too weak to quantify, mostly under pKd 3.1 to 4", "details": "plain residues with an end cap or a label only (N-terminal biotin on a linker: ado-ado)", "values": [{"binder": "B1", "pKd": "below the threshold"}, {"binder": "B2", "pKd": "below the threshold"}]}, {"biological_target": "FRMPD4, Q14CM0", "sequence (Q14CM0 67-160)": "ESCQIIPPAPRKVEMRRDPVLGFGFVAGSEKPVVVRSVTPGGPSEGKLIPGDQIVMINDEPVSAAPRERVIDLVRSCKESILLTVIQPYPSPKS", "experiment": "holdup assay", "design": "key: below the threshold = too weak to quantify, mostly under pKd 3.1 to 4", "details": "plain residues with an end cap or a label only (N-terminal biotin on a linker: ado-ado)", "values": [{"binder": "B1", "pKd": "below the threshold"}, {"binder": "B2", "pKd": "below the threshold"}]}, {"biological_target": "FRMPD2_2, Q68DX3", "sequence (Q68DX3 944-1038)": "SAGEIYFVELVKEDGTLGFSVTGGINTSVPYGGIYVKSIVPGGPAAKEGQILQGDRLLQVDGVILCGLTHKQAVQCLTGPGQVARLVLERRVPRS", "experiment": "holdup assay", "design": "key: below the threshold = too weak to quantify, mostly under pKd 3.1 to 4", "details": "plain residues with an end cap or a label only (N-terminal biotin on a linker: ado-ado)", "values": [{"binder": "B1", "pKd": 3.63}, {"binder": "B2", "pKd": "below the threshold"}]}, {"biological_target": "DLG4_2, P78352", "sequence (P78352 155-259)": "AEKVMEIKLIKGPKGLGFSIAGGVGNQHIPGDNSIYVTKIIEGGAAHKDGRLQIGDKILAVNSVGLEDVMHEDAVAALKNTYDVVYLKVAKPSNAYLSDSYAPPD", "experiment": "holdup assay", "design": "key: below the threshold = too weak to quantify, mostly under pKd 3.1 to 4", "details": "plain residues with an end cap or a label only (N-terminal biotin on a linker: ado-ado)", "values": [{"binder": "B1", "pKd": 3.97}, {"binder": "B2", "pKd": 4.03}]}, {"biological_target": "LDB3, O75112", "sequence (O75112 1-94)": "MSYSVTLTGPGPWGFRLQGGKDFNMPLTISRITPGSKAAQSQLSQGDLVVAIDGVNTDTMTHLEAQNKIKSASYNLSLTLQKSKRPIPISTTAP", "experiment": "holdup assay", "design": "key: below the threshold = too weak to quantify, mostly under pKd 3.1 to 4", "details": "plain residues with an end cap or a label only (N-terminal biotin on a linker: ado-ado)", "values": [{"binder": "B1", "pKd": "below the threshold"}, {"binder": "B2", "pKd": "below the threshold"}]}, {"biological_target": "T7, MPDZ_5, O75970", "T7 sequence (O75970 695-796, limits assumed, looked up)": "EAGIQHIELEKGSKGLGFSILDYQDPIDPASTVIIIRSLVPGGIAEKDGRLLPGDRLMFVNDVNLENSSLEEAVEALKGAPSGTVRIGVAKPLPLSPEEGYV", "experiment": "holdup assay", "design": "key: below the threshold = too weak to quantify, mostly under pKd 3.1 to 4", "details": "plain residues with an end cap or a label only (N-terminal biotin on a linker: ado-ado)", "values": [{"binder": "B1", "pKd": "below the threshold"}, {"binder": "B2", "pKd": 4.03}]}, {"biological_target": "T8, MPP7, Q5T2T1", "T8 sequence (Q5T2T1 134-230, limits assumed, looked up)": "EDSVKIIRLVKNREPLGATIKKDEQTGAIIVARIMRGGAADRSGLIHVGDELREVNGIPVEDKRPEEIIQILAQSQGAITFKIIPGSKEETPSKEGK", "experiment": "holdup assay", "design": "key: below the threshold = too weak to quantify, mostly under pKd 3.1 to 4", "details": "plain residues with an end cap or a label only (N-terminal biotin on a linker: ado-ado)", "values": [{"binder": "B1", "pKd": "below the threshold"}, {"binder": "B2", "pKd": "below the threshold"}]}, {"biological_target": "Inadl_2, Q8NI35", "sequence (Q8NI35 238-335)": "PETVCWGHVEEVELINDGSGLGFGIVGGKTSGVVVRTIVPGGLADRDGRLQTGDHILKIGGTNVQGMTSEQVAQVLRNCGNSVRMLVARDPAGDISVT", "experiment": "holdup assay", "design": "key: below the threshold = too weak to quantify, mostly under pKd 3.1 to 4", "details": "plain residues with an end cap or a label only (N-terminal biotin on a linker: ado-ado)", "values": [{"binder": "B1", "pKd": "below the threshold"}, {"binder": "B2", "pKd": 3.94}]}, {"biological_target": "MAGI3_2, Q5TCQ9", "sequence (Q5TCQ9 398-503)": "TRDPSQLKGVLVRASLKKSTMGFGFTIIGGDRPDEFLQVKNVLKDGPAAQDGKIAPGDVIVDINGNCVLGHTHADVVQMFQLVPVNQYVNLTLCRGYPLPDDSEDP", "experiment": "holdup assay", "design": "key: below the threshold = too weak to quantify, mostly under pKd 3.1 to 4", "details": "plain residues with an end cap or a label only (N-terminal biotin on a linker: ado-ado)", "values": [{"binder": "B1", "pKd": 5.19}, {"binder": "B2", "pKd": 3.85}]}, {"biological_target": "GRIP2_6, Q9C0E4", "sequence (Q9C0E4 648-740)": "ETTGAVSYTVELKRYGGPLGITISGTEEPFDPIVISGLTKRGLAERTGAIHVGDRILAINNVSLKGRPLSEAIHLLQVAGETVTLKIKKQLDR", "experiment": "holdup assay", "design": "key: below the threshold = too weak to quantify, mostly under pKd 3.1 to 4", "details": "plain residues with an end cap or a label only (N-terminal biotin on a linker: ado-ado)", "values": [{"binder": "B1", "pKd": "below the threshold"}, {"binder": "B2", "pKd": "below the threshold"}]}, {"biological_target": "MAST1, Q9Y2H9", "sequence (Q9Y2H9 962-1065)": "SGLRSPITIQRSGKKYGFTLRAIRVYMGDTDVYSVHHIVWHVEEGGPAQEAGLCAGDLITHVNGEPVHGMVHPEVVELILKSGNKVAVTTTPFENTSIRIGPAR", "experiment": "holdup assay", "design": "key: below the threshold = too weak to quantify, mostly under pKd 3.1 to 4", "details": "plain residues with an end cap or a label only (N-terminal biotin on a linker: ado-ado)", "values": [{"binder": "B1", "pKd": 4.7}, {"binder": "B2", "pKd": "below the threshold"}]}, {"biological_target": "T9, MPP6, Q9NZW5", "T9 sequence (Q9NZW5 125-219, limits assumed, looked up)": "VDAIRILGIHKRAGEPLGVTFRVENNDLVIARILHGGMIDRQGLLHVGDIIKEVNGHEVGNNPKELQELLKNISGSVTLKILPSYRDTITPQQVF", "experiment": "holdup assay", "design": "key: below the threshold = too weak to quantify, mostly under pKd 3.1 to 4", "details": "plain residues with an end cap or a label only (N-terminal biotin on a linker: ado-ado)", "values": [{"binder": "B1", "pKd": "below the threshold"}, {"binder": "B2", "pKd": "below the threshold"}]}, {"biological_target": "T10, RAPGEF6, Q8TEU7", "T10 sequence (Q8TEU7 525-625, limits assumed, looked up)": "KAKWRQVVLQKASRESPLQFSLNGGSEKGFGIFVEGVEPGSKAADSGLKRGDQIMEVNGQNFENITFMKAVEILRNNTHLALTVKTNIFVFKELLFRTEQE", "experiment": "holdup assay", "design": "key: below the threshold = too weak to quantify, mostly under pKd 3.1 to 4", "details": "plain residues with an end cap or a label only (N-terminal biotin on a linker: ado-ado)", "values": [{"binder": "B1", "pKd": "below the threshold"}, {"binder": "B2", "pKd": "below the threshold"}]}, {"biological_target": "MAGI2_5, Q86UL8", "sequence (Q86UL8 915-1017)": "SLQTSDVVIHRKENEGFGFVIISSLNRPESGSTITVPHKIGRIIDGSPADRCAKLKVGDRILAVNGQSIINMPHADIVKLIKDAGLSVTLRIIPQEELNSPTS", "experiment": "holdup assay", "design": "key: below the threshold = too weak to quantify, mostly under pKd 3.1 to 4", "details": "plain residues with an end cap or a label only (N-terminal biotin on a linker: ado-ado)", "values": [{"binder": "B1", "pKd": "below the threshold"}, {"binder": "B2", "pKd": "below the threshold"}]}, {"biological_target": "T11, RADIL, Q96JH8", "T11 sequence (Q96JH8 971-1071, limits assumed, looked up)": "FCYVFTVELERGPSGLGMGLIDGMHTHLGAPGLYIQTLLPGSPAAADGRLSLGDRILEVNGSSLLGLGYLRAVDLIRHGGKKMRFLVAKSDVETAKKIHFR", "experiment": "holdup assay", "design": "key: below the threshold = too weak to quantify, mostly under pKd 3.1 to 4", "details": "plain residues with an end cap or a label only (N-terminal biotin on a linker: ado-ado)", "values": [{"binder": "B1", "pKd": 3.7}, {"binder": "B2", "pKd": 5.63}]}]}
